Results from paper PMC6650902.

Target: TAF complex (TFIIDΔTBP) (S. cerevisiae) (UniProt P46677)

- topoisomerase I assay on pDrive/RPS5: linking number change (ΔLk) with TAFs and TBP mixed in equimolar amounts before the plasmid (TAF complex alone +1.91): 0.48
Substance: TATA-box binding protein (TBP), recombinant (from UniProt P13393 1-240) (natural protein)
